1 substance from paper PMC12592476 can be followed below.

In assay [1] the target is bovine brain Arp2/3 complex (bovine) (UniProt P61157). As to the kind of experiment: ITC; Coro7 CA in the syringe, ATP-bound Arp2/3 complex in the 1.44 mL cell; 25 °C; 20 mM HEPES pH 7.5, 100 mM KCl, 1 mM MgCl2, 1 mM EGTA, 1 mM DTT, 0.2 mM ATP. (In ITC the heat of successive injections is recorded.)
Assay [2] has the same target. Put plainly: ITC; Coro7 CA in the syringe, ADP-bound Arp2/3 complex in the 1.44 mL cell; 25 °C; 20 mM HEPES pH 7.5, 100 mM KCl, 1 mM MgCl2, 1 mM EGTA, 1 mM DTT, 0.2 mM ADP.

human Coro7 CA (C-terminal Central-Acidic region of coronin 7), sequence (P57737 888-925): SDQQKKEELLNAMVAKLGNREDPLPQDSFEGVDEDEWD

In assay [1], “human Coro7 CA (C-terminal Central-Acidic region of coronin 7) (from UniProt P57737-1 888-925) (domain or fragment)” displayed a dissociation constant (Kd) of 1000 nM and a stoichiometry N of 1. For the same substance, in assay [2], the dissociation constant Kd is 1000 nM and the stoichiometry N worked out at 1.

One may read the Kd as a measure of binding affinity in units of concentration. What is called stoichiometry N is the number of molecules, sites or subunits per partner or assembly.
